Where only a bound is given, the exact number is not on record here.

Assay [1] has as its target histone H2A (bovine (calf thymus)) (UniProt P0C0S9).
Assay [2] deals with M1 protein on the surface of live GAS M1T1 5448 wild type (group A Streptococcus (endogenous in strain M1T1 5448)) (UniProt Q99XV0). As to the kind of experiment: immunogold transmission electron microscopy; bacteria with 31.25 μg/mL histone H2A, 30 min at 37 °C, washed, fixed with 2% PFA; anti-histone H2A antibody and 15 nm immunogold secondary antibody; particles counted on >20 bacteria.

Consider “M1 protein fragment A+B (residues 42-194), recombinant NT fragment (from UniProt Q99XV0 42-194) (domain or fragment)”, for which, in assay [1], the histone MIC for the GAS Δemm1 mutant with exogenous 10 μM recombinant NT fragment (rNT) amounted to 2 fold. Substance “histone H2A (from UniProt P0C0S9 1-130) (natural protein)” gave a gold particles per bacterium (gold-particles per bacterium) in assay [2] of over 30.

For the origin of these results see PMC5318940.
